# Laboratory results: patent publication US12630600B2 (MEDIMMUNE LIMITED, priority 2022, dated 2026)
# Starred links: 1 amine or outer side, 2 acyl side, 3 side chain; linkers in the order of their positions; H or OH if unused. Non-standard residues stand in square brackets, D forms with d. Groups on a side chain read outwards from the residue. No end group written: not given here. *: point of attachment. C20 diacid = O=C(O)CCCCCCCCCCCCCCCCCCC(=O)*; C18 diacid = O=C(O)CCCCCCCCCCCCCCCCC(=O)*; γGlu = O=C(O)[C@H](CCC(=O)[*:2])N[*:1]; αMeF = C[C@](N)(Cc1ccccc1)C(=O)O; AEEA = NCCOCCOCC(=O)O; Aib = CC(C)(N)C(=O)O
# B1: Peptide 514 (peptide)
# peptide: H[Aib]QGTFTSDVSK[αMeF]LDTK([AEEA-AEEA-γGlu-C18 diacid])AARDFVQWLLE[Aib]G-NH2
# modifications: N-terminus assumed
# SMILES: CC(C)C[C@H](NC(=O)[C@H](Cc1c[nH]c2ccccc12)NC(=O)[C@H](CCC(N)=O)NC(=O)[C@@H](NC(=O)[C@H](Cc1ccccc1)NC(=O)[C@H](CC(=O)O)NC(=O)[C@H](CCCNC(=N)N)NC(=O)[C@H](C)NC(=O)[C@H](C)NC(=O)[C@H](CCCCNC(=O)COCCOCCNC(=O)COCCOCCNC(=O)CC[C@H](NC(=O)CCCCCCCCCCCCCCCCC(=O)O)C(=O)O)NC(=O)[C@@H](NC(=O)[C@H](CC(=O)O)NC(=O)[C@H](CC(C)C)NC(=O)[C@](C)(Cc1ccccc1)NC(=O)[C@H](CCCCN)NC(=O)[C@H](CO)NC(=O)[C@@H](NC(=O)[C@H](CC(=O)O)NC(=O)[C@H](CO)NC(=O)[C@@H](NC(=O)[C@H](Cc1ccccc1)NC(=O)[C@@H](NC(=O)CNC(=O)[C@H](CCC(N)=O)NC(=O)C(C)(C)NC(=O)[C@@H](N)Cc1c[nH]cn1)[C@@H](C)O)[C@@H](C)O)C(C)C)[C@@H](C)O)C(C)C)C(=O)N[C@@H](CC(C)C)C(=O)N[C@@H](CCC(=O)O)C(=O)NC(C)(C)C(=O)NCC(N)=O
# B2: Peptide 136 (peptide)
# peptide: H[Aib]QGTFTSDVSK[αMeF]LDSK([γGlu-γGlu-AEEA-AEEA-γGlu-γGlu-C18 diacid])RARDFVRWLLE[Aib]G-OH
# modifications: N-terminus assumed
# SMILES: CC(C)C[C@H](NC(=O)[C@H](Cc1c[nH]c2ccccc12)NC(=O)[C@H](CCCNC(=N)N)NC(=O)[C@@H](NC(=O)[C@H](Cc1ccccc1)NC(=O)[C@H](CC(=O)O)NC(=O)[C@H](CCCNC(=N)N)NC(=O)[C@H](C)NC(=O)[C@H](CCCNC(=N)N)NC(=O)[C@H](CCCCNC(=O)CC[C@H](NC(=O)CC[C@H](NC(=O)COCCOCCNC(=O)COCCOCCNC(=O)CC[C@H](NC(=O)CC[C@H](NC(=O)CCCCCCCCCCCCCCCCC(=O)O)C(=O)O)C(=O)O)C(=O)O)C(=O)O)NC(=O)[C@H](CO)NC(=O)[C@H](CC(=O)O)NC(=O)[C@H](CC(C)C)NC(=O)[C@](C)(Cc1ccccc1)NC(=O)[C@H](CCCCN)NC(=O)[C@H](CO)NC(=O)[C@@H](NC(=O)[C@H](CC(=O)O)NC(=O)[C@H](CO)NC(=O)[C@@H](NC(=O)[C@H](Cc1ccccc1)NC(=O)[C@@H](NC(=O)CNC(=O)[C@H](CCC(N)=O)NC(=O)C(C)(C)NC(=O)[C@@H](N)Cc1c[nH]cn1)[C@@H](C)O)[C@@H](C)O)C(C)C)C(C)C)C(=O)N[C@@H](CC(C)C)C(=O)N[C@@H](CCC(=O)O)C(=O)NC(C)(C)C(=O)NCC(=O)O
# B3: Peptide 515 (peptide)
# peptide: H[Aib]QGTFTSDVSK[αMeF]LDTK([AEEA-AEEA-γGlu-C20 diacid])AARDFVQWLLE[Aib]G-NH2
# modifications: N-terminus assumed
# SMILES: CC(C)C[C@H](NC(=O)[C@H](Cc1c[nH]c2ccccc12)NC(=O)[C@H](CCC(N)=O)NC(=O)[C@@H](NC(=O)[C@H](Cc1ccccc1)NC(=O)[C@H](CC(=O)O)NC(=O)[C@H](CCCNC(=N)N)NC(=O)[C@H](C)NC(=O)[C@H](C)NC(=O)[C@H](CCCCNC(=O)COCCOCCNC(=O)COCCOCCNC(=O)CC[C@H](NC(=O)CCCCCCCCCCCCCCCCCCC(=O)O)C(=O)O)NC(=O)[C@@H](NC(=O)[C@H](CC(=O)O)NC(=O)[C@H](CC(C)C)NC(=O)[C@](C)(Cc1ccccc1)NC(=O)[C@H](CCCCN)NC(=O)[C@H](CO)NC(=O)[C@@H](NC(=O)[C@H](CC(=O)O)NC(=O)[C@H](CO)NC(=O)[C@@H](NC(=O)[C@H](Cc1ccccc1)NC(=O)[C@@H](NC(=O)CNC(=O)[C@H](CCC(N)=O)NC(=O)C(C)(C)NC(=O)[C@@H](N)Cc1c[nH]cn1)[C@@H](C)O)[C@@H](C)O)C(C)C)[C@@H](C)O)C(C)C)C(=O)N[C@@H](CC(C)C)C(=O)N[C@@H](CCC(=O)O)C(=O)NC(C)(C)C(=O)NCC(N)=O
# B4: Peptide 517 (peptide)
# peptide: H[Aib]QGTFTSDVSK[αMeF]LEAK([AEEA-AEEA-γGlu-γGlu-C18 diacid])AAREFIAWLLET-NH2
# modifications: N-terminus assumed
# SMILES: CC[C@H](C)[C@H](NC(=O)[C@H](Cc1ccccc1)NC(=O)[C@H](CCC(=O)O)NC(=O)[C@H](CCCNC(=N)N)NC(=O)[C@H](C)NC(=O)[C@H](C)NC(=O)[C@H](CCCCNC(=O)COCCOCCNC(=O)COCCOCCNC(=O)CC[C@H](NC(=O)CC[C@H](NC(=O)CCCCCCCCCCCCCCCCC(=O)O)C(=O)O)C(=O)O)NC(=O)[C@H](C)NC(=O)[C@H](CCC(=O)O)NC(=O)[C@H](CC(C)C)NC(=O)[C@](C)(Cc1ccccc1)NC(=O)[C@H](CCCCN)NC(=O)[C@H](CO)NC(=O)[C@@H](NC(=O)[C@H](CC(=O)O)NC(=O)[C@H](CO)NC(=O)[C@@H](NC(=O)[C@H](Cc1ccccc1)NC(=O)[C@@H](NC(=O)CNC(=O)[C@H](CCC(N)=O)NC(=O)C(C)(C)NC(=O)[C@@H](N)Cc1c[nH]cn1)[C@@H](C)O)[C@@H](C)O)C(C)C)C(=O)N[C@@H](C)C(=O)N[C@@H](Cc1c[nH]c2ccccc12)C(=O)N[C@@H](CC(C)C)C(=O)N[C@@H](CC(C)C)C(=O)N[C@@H](CCC(=O)O)C(=O)N[C@H](C(N)=O)[C@@H](C)O
# B5: Peptide 513 (peptide)
# peptide: H[Aib]QGT[αMeF]TSDVSK[αMeF]LDTK([AEEA-AEEA-γGlu-C18 diacid])RARD[αMeF]VQWLLA[Aib]G-NH2
# modifications: N-terminus assumed
# SMILES: CC(C)C[C@H](NC(=O)[C@H](CC(C)C)NC(=O)[C@H](Cc1c[nH]c2ccccc12)NC(=O)[C@H](CCC(N)=O)NC(=O)[C@@H](NC(=O)[C@](C)(Cc1ccccc1)NC(=O)[C@H](CC(=O)O)NC(=O)[C@H](CCCNC(=N)N)NC(=O)[C@H](C)NC(=O)[C@H](CCCNC(=N)N)NC(=O)[C@H](CCCCNC(=O)COCCOCCNC(=O)COCCOCCNC(=O)CC[C@H](NC(=O)CCCCCCCCCCCCCCCCC(=O)O)C(=O)O)NC(=O)[C@@H](NC(=O)[C@H](CC(=O)O)NC(=O)[C@H](CC(C)C)NC(=O)[C@](C)(Cc1ccccc1)NC(=O)[C@H](CCCCN)NC(=O)[C@H](CO)NC(=O)[C@@H](NC(=O)[C@H](CC(=O)O)NC(=O)[C@H](CO)NC(=O)[C@@H](NC(=O)[C@](C)(Cc1ccccc1)NC(=O)[C@@H](NC(=O)CNC(=O)[C@H](CCC(N)=O)NC(=O)C(C)(C)NC(=O)[C@@H](N)Cc1c[nH]cn1)[C@@H](C)O)[C@@H](C)O)C(C)C)[C@@H](C)O)C(C)C)C(=O)N[C@@H](C)C(=O)NC(C)(C)C(=O)NCC(N)=O
# Molecular target: human GLP-1 receptor (human, UniProt P43220)
# Assay: cell-based or functional assay
row,cAMP production EC50,Binder
1,0.0767 nM,B1
2,0.0452 nM,B2
3,0.297 nM,B3
4,0.146 nM,B4
5,0.0938 nM,B5

# Molecular target: human glucagon receptor (human, UniProt P47871)
# Assay: cell-based or functional assay
row,cAMP production EC50,Binder
1,1.37 nM,B1
2,0.509 nM,B2
3,2.66 nM,B3
4,0.738 nM,B4
5,1.34 nM,B5
